# Measured values from patent publication US20240199724A1 (THELPER, published 2024).
# Where “and” joins values, the source holds several entries; their conditions need not be identical. Equal values may be shown once.
# T1: mutated US28 (artificially created mutated strain) with C-terminal 6His tag, on CHO cells (human cytomegalovirus (HCMV), …, UniProt P69332 1-354)
# T1 construct: also called CHO-mutated strain; mutated form of US28
# T1 chain: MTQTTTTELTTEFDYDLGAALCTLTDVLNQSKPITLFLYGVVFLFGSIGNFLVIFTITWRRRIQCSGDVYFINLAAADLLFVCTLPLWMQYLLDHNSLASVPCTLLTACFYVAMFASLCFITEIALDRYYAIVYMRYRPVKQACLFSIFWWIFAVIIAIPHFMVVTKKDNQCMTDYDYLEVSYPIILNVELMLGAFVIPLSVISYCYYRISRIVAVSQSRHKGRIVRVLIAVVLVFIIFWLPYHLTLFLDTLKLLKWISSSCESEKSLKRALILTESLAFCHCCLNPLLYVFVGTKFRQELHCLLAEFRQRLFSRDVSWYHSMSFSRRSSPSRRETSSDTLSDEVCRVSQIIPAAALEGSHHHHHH
# T2: US28 of HCMV strain TB40/E with C-terminal 6His tag, on CHO cells (human cytomegalovirus (HCMV) strain …, UniProt P69332 1-354)
# T2 construct: also called TB40/E form of US28
# T2 chain: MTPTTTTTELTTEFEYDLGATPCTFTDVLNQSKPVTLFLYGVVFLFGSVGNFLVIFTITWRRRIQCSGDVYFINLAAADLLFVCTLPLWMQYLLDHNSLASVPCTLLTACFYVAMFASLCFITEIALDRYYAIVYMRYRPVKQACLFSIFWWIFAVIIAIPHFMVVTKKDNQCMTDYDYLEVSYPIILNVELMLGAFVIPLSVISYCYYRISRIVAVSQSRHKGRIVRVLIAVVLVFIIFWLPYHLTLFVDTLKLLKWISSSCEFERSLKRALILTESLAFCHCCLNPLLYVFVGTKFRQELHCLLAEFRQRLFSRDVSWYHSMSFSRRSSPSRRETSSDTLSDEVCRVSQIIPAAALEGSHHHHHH
# T3: US28 of HCMV strain DB with C-terminal 6His tag, on CHO-US28-A1 cells (human cytomegalovirus (HCMV) strain DB, UniProt P69332 1-354)
# T3 chain: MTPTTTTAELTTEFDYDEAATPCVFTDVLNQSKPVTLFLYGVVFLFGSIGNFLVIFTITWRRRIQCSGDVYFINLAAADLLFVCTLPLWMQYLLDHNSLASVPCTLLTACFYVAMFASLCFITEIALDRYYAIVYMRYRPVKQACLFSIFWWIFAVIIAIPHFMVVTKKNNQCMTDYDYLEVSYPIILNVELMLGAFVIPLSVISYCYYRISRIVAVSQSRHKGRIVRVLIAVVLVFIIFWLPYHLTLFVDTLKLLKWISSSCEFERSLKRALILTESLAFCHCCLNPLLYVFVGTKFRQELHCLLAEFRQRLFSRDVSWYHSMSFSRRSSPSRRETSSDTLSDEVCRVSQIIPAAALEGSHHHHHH
# T4: US28 of HCMV strain Ad169, on infected MRC-5 cells (human cytomegalovirus (HCMV) strain …, UniProt P69332 1-354)
# T4 sequence: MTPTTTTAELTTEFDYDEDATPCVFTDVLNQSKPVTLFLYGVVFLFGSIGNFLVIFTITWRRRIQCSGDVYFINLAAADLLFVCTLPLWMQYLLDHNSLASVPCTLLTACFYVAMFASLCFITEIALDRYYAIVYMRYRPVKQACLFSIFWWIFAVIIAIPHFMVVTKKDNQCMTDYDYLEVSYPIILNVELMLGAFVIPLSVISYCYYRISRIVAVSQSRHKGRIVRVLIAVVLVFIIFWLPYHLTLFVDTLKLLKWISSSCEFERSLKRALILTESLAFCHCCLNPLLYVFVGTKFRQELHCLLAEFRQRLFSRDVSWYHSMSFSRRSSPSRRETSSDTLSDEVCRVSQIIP
# Key:
# [1] = biological target: US28 of HCMV strain DB with C-terminal 6His tag, on CHO-US28-A1 cells (human cytomegalovirus (HCMV) strain DB) (UniProt P69332); assay: flow cytometry, secondary antibody alone on CHO-US28-A1 cells
# [2] = biological target: T1, mutated US28 (artificially created …); assay: flow cytometry, CHO cells expressing the mutated US28 (FIG. 21B)
# [3] = biological target: T2, US28 of HCMV strain TB40/E with …; assay: flow cytometry, CHO cells expressing DB or TB40/E US28 (FIG. 21D)
# [4] = biological target: T3, US28 of HCMV strain DB with C-terminal …; assay: flow cytometry, CHO cells expressing US28 of strain DB
# [5] = biological target: T2, US28 of HCMV strain TB40/E with …; assay: flow cytometry, CHO cells expressing DB or TB40/E US28 (FIG. 21C)
# [6] = biological target: T3, US28 of HCMV strain DB with C-terminal …; assay: flow cytometry, 1:50 (w/v)
# [7] = biological target: T1, mutated US28 (artificially created …); assay: flow cytometry, CHO cells expressing the mutated US28
# [8] = biological target: T3, US28 of HCMV strain DB with C-terminal …; assay: flow cytometry
# [9] = biological target: T4, US28 of HCMV strain Ad169, on infected …
# [10] = biological target: T2, US28 of HCMV strain TB40/E with …; assay: flow cytometry, CHO cells expressing US28 of strain TB40/E
# [11] = biological target: T3, US28 of HCMV strain DB with C-terminal …; assay: flow cytometry, CHO-US28 (DB) cells against control CHO cells, background subtracted
# [12] = biological target: Bio-Peptide-2 (human cytomegalovirus (HCMV), 4D variant); assay: ELISA (FIG. 5)
Molecule,percentage retention of binding activity between the DB and TB40/E forms of US28 [3],percent of cells bound [4],% change in absolute level of binding between the DB and TB40/E forms of US28 [5],percent of cells bound [7],percent of cells bound [10],Binding specificity comparative to the specificity displayed by VUN100 [11],further results
Goat anti-mouse IgG-Alexa 488 (antibody),–,–,–,–,–,–,percent of cells bound [1]: 1.63%
"US28-13-5G6-1D3 antibody (antibody, V domains shown, also called US28-13-5G6-1D3 Ab; US28-13-5G6-1D3 rAb) VH: EVKLVESGGGLVQPGGSLRLACATSGFTFTDYYMSWVRQPPGKALEWLGFIRSKANGYTTEYSASVKGRFTISRDNSQSILYLQMNTLRSEDSATYYCARDERRTAWLAYWGQGTLVTVSA VL: DVLMTQTPLSLPVSLGDQASISCRSSQSIVHSNGNTYLDWYLQKPGQSPKLLIYKVSNRFSGVPDRFSGSGSGTDFTLKISRVEAEDLGVYYCFQGSHVPTWTFGGGTKLEIKR",~100%,16.6%,< 10%,12.9%,18.2%,1.65 ratio,fold binding against control CHO cells [2]: ~15 fold; fold binding against US28 negative CHO cells [6]: 15 fold; fold binding against normal CHO cells [8]: > 21 fold; fold binding against uninfected cells [9]: ~16 fold
US28-13-5G6-1D3 antibody (antibody) heavy: EVKLVESGGGLVQPGGSLRLACATSGFTFTDYYMSWVRQPPGKALEWLGFIRSKANGYTTEYSASVKGRFTISRDNSQSILYLQMNTLRSEDSATYYCARDERRTAWLAYWGQGTLVTVSAAKTTPPSVYPLAPGSAAQTNSMVTLGCLVKGYFPEPVTVTWNSGSLSSGVHTFPAVLQSDLYTLSSSVTVPSSTWPSETVTCNVAHPASSTKVDKKIVPRDCGCKPCICTVPEVSSVFIFPPKPKDVLTITLTPKVTCVVVDISKDDPEVQFSWFVDDVEVHTAQTQPREEQFNSTFRSVSELPIMHQDWLNGKEFKCRVNSAAFPAPIEKTISKTKGRPKAPQVYTIPPPKEQMAKDKVSLTCMITDFFPEDITVEWQWNGQPAENYKNTQPIMDTDGSYFIYSKLNVQKSNWEAGNTFTCSVLHEGLHNHHTEKSLSHSPGK light: DVLMTQTPLSLPVSLGDQASISCRSSQSIVHSNGNTYLDWYLQKPGQSPKLLIYKVSNRFSGVPDRFSGSGSGTDFTLKISRVEAEDLGVYYCFQGSHVPTWTFGGGTKLEIKRADAAPTVSIFPPSSEQLTSGGASVVCFLNNFYPKDINVKWKIDGSERQNGVLNSWTDQDSKDSTYSMSSTLTLTKDEYERHNSYTCEATHKTSTSPIVKSFNRNEC,–,–,–,–,–,–,fold binding against BSA control [12]: 27 fold and 28 fold
"monovalent VUN100 (VHH, also called Mv VUN100; VUN100 Ab) VHH: EVQLVESGGGLVQPGGSLRLACAVSGPGLIFKFTGVAWYRRQVPGAKRGLVALITGDGATRYGDSVKGRFTVSRDIAAKRVYLEMNDLRSEDTAVYYCKTGEYWGQGTQVTVSS",≤ 60%,6.91%,> 35%,1.41%,4.33%,–,specificity (fold binding against control CHO cells) [2]: < 1 fold; binding result [7]: no binding (tested: 50 µg/ml)
"bivalent VUN100 (VHH, also called VUN100b; BvVUN100) EVQLVESGGGLVQPGGSLRLACAVSGPGLIFKFTGVAWYRRQVPGAKRGLVALITGDGATRYGDSVKGRFTVSRDIAAKRVYLEMNDLRSEDTAVYYCKTGEYWGQGTQVTVSSGGGGSGGGGSGGGGSGGGGSGGGGSGGGGSEVQLVESGGGLVQPGGSLRLACAVSGPGLIFKFTGVAWYRRQVPGAKRGLVALITGDGATRYGDSVKGRFTVSRDIAAKRVYLEMNDLRSEDTAVYYCKTGEYWGQGTQVTVSS",≤ 60%,9.24%,> 40%,2.58%,5.2%,–,fold binding against control CHO cells [2]: 2.43 fold
"US28-14-4E4-1E8 antibody (antibody, mouse IgG1, kappa, V domains shown) VH: EVKLVESGGDLVKPGGSLKLSCAASGFTFSSYAMSWVRQTPEKRLEWVASISSGGRTYYPDSVKGRFTISRDNARNILYLQMSSLRSEDTAIYYCARGGTRHSYGNGFDYWGQGTTLTVSS VL: QIVLSQSPTIMSASPGEKVTMTCSASSSVSYMHWYQQKSGTSPKRWIYDSSKLASGVPARFSGSGSGTSYSLTISSMEAEDAATYYCQQWTSNPPITFGAGTKLELKR",–,–,–,–,–,4.6 ratio,–
"US28-13-1H3-1A10 antibody (antibody, mouse IgG1, kappa, V domains shown, also called 14-1H3-1A10; 14-IH3-IA10) VH: EVKLVESGGVLVKPGGSLKFSCAASGFTLSSHALSWVRQTPEKRLEWVASISSRGRTYYPDSVKGRFTVSRDNARNILYLQVSSLRSEDTAMYYCTRGGTHYSYGNGFDFWGQGTTLTVSS VL: QIVLTQSPAIMSASPGEKVTMTCSVSSSVSYMHWYQQKSGTSPKRWIYDTSKLASGVPARFSGSGSGTSYSLTISTMEAEDAATYYCQQWSNNPPITFGAGTKLELKR",–,–,–,–,–,2.29 ratio,–
"US28-13-1C10-1C10 antibody (antibody, mouse IgG1, kappa, V domains shown) VH: EVKLVESGGVLVKPGGSLKFSCAASGFTFSSHALSWVRQTPEKRLEWVASISSRGRTYYPDSVKGRFTVSRDNARNILYLQVSSLRSEDTAMYYCTRGGTHYSYGNGFDFWGQGTTLTVSS VL: QIVLTQSPAIMSASPGEKVTMTCSVSSSVSYMHWYQQKSGTSPKRWIYDTSKLASGVPARFSGSGSGTSYSLTISTMEAEDAATYYCQQWSNNPPITFGAGTKLELKR",–,–,–,–,–,1.74 ratio,–
